Patent US7666582B2, “IdeS, an IgG-degrading enzyme of Streptococcus pyogenes” (Hansa Medical Research AB, priority 2001, dated 2010)

What was measured:
Type in all cases: biochemical
cystatin C = target: T1, cystatin C (Mus musculus, UniProt P21460); assay: IdeS incubation with mouse cystatin C
T1 sequence (P21460 21-140): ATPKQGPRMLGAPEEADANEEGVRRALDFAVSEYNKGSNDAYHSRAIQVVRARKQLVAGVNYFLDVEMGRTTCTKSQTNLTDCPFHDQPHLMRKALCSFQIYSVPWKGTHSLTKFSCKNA

fibronectin = fibronectin (Homo sapiens, UniProt P02751); assay: IdeS cleavage of other human proteins: fibronectin
fibrinogen = target: T2, fibrinogen (Homo sapiens, UniProt P02671+P02675+P02679); assay: IdeS cleavage of other human proteins: fibrinogen
T2 sequence (P02671 20-629 limits assumed): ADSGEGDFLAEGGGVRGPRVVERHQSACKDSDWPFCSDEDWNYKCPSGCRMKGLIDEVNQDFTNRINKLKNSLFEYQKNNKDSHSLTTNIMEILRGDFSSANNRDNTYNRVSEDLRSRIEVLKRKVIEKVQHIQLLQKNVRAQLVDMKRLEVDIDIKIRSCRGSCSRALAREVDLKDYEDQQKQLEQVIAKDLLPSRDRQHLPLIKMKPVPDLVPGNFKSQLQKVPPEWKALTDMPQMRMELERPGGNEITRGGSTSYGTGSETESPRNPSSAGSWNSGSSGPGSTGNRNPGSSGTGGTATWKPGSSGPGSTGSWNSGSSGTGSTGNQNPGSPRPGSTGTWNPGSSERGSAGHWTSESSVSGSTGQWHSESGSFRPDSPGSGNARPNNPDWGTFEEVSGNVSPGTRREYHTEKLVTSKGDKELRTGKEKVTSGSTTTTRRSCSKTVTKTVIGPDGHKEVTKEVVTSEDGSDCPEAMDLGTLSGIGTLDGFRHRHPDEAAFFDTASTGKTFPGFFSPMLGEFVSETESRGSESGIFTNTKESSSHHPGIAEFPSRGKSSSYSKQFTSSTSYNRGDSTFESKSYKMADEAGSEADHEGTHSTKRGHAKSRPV
T2 sequence (P02675 31-491): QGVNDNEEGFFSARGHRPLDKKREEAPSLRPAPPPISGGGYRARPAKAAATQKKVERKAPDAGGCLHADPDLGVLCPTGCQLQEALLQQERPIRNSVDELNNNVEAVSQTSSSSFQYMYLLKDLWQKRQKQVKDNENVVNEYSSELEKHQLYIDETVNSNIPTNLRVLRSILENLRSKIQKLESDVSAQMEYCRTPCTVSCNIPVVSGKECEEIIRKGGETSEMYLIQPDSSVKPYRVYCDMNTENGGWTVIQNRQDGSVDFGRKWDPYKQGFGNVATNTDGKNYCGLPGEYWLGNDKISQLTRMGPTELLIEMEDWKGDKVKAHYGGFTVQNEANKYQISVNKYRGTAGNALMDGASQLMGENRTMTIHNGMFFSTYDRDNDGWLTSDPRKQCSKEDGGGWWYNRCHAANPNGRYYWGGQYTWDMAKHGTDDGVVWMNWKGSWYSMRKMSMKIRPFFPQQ
T2 sequence (P02679 27-453): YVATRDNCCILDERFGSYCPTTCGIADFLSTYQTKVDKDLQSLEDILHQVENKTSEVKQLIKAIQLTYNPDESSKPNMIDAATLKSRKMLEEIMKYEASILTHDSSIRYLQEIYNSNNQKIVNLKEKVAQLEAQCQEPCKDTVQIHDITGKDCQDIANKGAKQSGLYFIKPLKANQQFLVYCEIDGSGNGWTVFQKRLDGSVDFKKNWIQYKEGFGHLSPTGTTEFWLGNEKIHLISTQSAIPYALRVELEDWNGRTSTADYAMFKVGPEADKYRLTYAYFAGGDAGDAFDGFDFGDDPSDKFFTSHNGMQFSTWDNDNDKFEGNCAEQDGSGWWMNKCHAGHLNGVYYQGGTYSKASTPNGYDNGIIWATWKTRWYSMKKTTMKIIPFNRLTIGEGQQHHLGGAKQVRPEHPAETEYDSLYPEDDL

murine IgG = assay: IdeS species restrictions: murine IgG

fibronectin, sequence (P02751 32-2477): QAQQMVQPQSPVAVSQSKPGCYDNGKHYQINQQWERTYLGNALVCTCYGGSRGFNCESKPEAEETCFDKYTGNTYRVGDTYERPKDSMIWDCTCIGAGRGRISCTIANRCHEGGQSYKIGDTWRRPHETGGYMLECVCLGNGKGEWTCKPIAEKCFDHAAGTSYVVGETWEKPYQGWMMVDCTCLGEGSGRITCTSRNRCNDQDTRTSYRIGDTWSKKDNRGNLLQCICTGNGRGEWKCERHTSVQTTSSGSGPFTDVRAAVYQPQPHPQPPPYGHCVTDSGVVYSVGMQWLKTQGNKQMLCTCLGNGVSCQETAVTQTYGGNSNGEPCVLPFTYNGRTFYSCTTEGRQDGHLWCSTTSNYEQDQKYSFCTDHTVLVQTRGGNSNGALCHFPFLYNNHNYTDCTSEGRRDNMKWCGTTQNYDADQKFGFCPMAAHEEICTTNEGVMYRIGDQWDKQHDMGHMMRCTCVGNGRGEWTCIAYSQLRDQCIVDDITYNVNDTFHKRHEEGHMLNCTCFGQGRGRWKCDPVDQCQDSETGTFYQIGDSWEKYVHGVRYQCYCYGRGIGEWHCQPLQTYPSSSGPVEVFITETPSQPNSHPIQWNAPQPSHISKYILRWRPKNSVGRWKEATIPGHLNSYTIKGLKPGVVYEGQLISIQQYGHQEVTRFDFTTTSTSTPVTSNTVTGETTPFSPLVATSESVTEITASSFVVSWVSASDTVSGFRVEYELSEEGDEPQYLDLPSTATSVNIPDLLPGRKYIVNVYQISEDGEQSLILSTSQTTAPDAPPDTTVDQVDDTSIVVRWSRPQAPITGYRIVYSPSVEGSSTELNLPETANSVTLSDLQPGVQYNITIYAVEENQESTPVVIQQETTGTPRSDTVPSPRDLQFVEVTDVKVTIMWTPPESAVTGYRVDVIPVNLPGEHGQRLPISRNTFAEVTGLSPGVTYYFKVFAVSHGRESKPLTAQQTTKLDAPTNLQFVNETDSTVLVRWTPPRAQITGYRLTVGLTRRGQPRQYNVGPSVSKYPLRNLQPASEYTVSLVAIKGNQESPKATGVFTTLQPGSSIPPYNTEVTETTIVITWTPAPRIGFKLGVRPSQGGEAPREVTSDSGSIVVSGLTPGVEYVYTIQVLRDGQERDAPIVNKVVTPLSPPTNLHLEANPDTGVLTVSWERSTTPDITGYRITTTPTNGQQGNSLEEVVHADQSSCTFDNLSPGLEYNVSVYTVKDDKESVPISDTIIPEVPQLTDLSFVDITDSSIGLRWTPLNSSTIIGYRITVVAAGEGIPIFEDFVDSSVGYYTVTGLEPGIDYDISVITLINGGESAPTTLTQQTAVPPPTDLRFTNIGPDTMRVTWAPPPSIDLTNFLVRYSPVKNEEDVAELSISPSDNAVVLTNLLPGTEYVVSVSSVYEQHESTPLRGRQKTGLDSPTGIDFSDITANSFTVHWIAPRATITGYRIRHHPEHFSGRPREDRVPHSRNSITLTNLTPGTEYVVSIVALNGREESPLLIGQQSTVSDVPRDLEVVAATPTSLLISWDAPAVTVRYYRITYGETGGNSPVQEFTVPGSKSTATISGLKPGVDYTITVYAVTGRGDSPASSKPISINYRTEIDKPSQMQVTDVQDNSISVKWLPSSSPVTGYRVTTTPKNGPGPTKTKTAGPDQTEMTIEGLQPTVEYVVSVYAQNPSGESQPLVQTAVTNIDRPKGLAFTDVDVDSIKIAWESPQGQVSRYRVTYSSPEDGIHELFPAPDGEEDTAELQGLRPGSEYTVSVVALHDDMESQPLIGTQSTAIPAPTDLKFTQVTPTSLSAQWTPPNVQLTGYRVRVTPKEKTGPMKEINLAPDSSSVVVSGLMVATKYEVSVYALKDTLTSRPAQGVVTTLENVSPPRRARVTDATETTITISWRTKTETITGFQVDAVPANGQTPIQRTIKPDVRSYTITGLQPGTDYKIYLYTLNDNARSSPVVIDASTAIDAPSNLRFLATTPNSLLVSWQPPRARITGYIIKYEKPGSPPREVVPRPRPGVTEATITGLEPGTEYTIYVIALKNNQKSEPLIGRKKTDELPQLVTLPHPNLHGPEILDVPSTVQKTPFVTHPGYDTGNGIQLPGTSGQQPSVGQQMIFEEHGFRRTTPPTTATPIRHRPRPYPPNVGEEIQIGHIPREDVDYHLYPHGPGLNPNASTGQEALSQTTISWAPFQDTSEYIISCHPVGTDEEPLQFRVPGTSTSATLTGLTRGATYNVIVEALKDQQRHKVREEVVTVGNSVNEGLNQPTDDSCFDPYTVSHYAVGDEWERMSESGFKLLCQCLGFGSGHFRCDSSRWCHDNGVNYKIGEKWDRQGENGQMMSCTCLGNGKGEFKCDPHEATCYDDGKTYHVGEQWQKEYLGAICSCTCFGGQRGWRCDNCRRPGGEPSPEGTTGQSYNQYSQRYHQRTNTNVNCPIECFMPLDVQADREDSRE

B1: IdeS: new extracellular cysteine protease produced by S. pyogenes, highly specific for IgG; SEQ ID NO: 1 (protein)
chain: DSFSANQEIRYSEVTPYHVTSVWTKGVTPPANFTQGEDVFHAPYVANQGWYDITKTFNGKDDLLCGAATAGNMLHWWFDQNKDQIKRYLEEHPEKQKINFNGEQMFDVKEAIDTKNHQLDSKLFEYFKEKAFPYLSTKHLGVFPDHVIDMFINGYRLSLTNHGPTPVKEGSKDPRGGIFDAVFTRGDQSKLLTSRHDFKEKNLKEISDLIKKELTEGKALGLSHTYANVRINHVINLWGADFDSNGNLKAIYVTDSDSNASIGMKKYFVGVNSAGKVAISAKEIKEDNIGAQVLGLFTLSTGQDSWNQTN
modifications: S. Pyogenes
cleavage products, cystatin C from mouse (cystatin C): No cleavage products could be observed
cleavage products, fibronectin (fibronectin): No cleavage products could be detected
cleavage products, fibrinogen (fibrinogen): No cleavage products could be detected
cleavage of murine IgG (murine IgG): not murine IgG
